# Patent US11529390B2, “PCSK9 inhibitory polypolypeptides and methods of use” (INSTITUT DE CARDIOLOGIE DE MONTREAL, priority 2015, dated 2022)
# Where two headings read alike, the source gives them in different places. Ends that are not written are not given here. Peptide text beside a SMILES is read from it. * marks the point of attachment. Cbz = O=C(OCc1ccccc1)*
# B1: SEQ ID. NO. 66: secretable HA-tagged form of human GRP94 lacking its C-terminal KDEL sequence (protein)
# chain: MRALWVLGLCCVLLTFGSVRADDEVDVDGTVEEDLGKSREGSRTDDEVVQREEEAIQLDGLNASQIRELREKSEKFAFQAEVNRMMKLIINSLYKNKEIFLRELISNASDALDKIRLISLTDENALSGNEELTVKIKCDKEKNLLHVTDTGVGMTREELVKNLGTIAKSGTSEFLNKMTEAQEDGQSTSELIGQFGVGFYSAFLVADKVIVTSKHNNDTQHIWESDSNEFSVIADPRGNTLGRGTTITLVLKEEASDYLELDTIKNLVKKYSQFINFPIYVWSSKTETVEEPMEEEEAAKEEKEESDDEAAVEEEEEEKKPKTKKVEKTVWDWELMNDIKPIWQRPSKEVEEDEYKAFYKSFSKESDDPMAYIHFTAEGEVTFKSILFVPTSAPRGLFDEYGSKKSDYIKLYVRRVFITDDFHDMMPKYLNFVKGVVDSDDLPLNVSRETLQQHKLLKVIRKKLVRKTLDMIKKIADDKYNDTFWKEFGTNIKLGVIEDHSNRTRLAKLLRFQSSHHPTDITSLDQYVERMKEKQDKIYFMAGSSRKEAESSPFVERLLKKGYEVIYLTEPVDEYCIQALPEFDGKRFQNVAKEGVKFDESEKTKESREAVEKEFEPLLNWMKDKALKDKIEKAVVSQRLTESPCALVASQYGWSGNMERIMKAQAYQTGKDISTNYYASQKKTFEINPRHPLIRDMLRRIKEDEDDKTVLDLAVVLFETATLRSGYLLPDTKAYGDRIERMLRLSLNIDPDAKVEEEPEEEPEETAEDTTEDTEQDEDEEMDVGTDEEEETAKESTAEYPYDVPDYA
# Tests used:
# [1] = tested on: PCSK9-induce degradation of LDLR; experiment: PCSK9-induced LDLR-EGFP degradation in GRP94 knockdown HEK293 cells with proteasome inhibitor; assay type: cell-based, human; conditions: 5 μM, HEK293, overnight
# Protocol: FIG. 4: Knockdown of GRP94 increases LDLR degradation by PCSK9. At day 0, HEK293 cells were transfected either with a non-targeting siRNA (−) or with siRNAs against GRP94 (+). At day 1, cells were transfected with an empty vector (−) or with plasmids encoding for LDLR-EGFP (SEQ. ID. NO. 69) alone or in combination with PCSK9-mCherry (SEQ. ID. NO. 70). At day 2, cells were washed and incubated overnight with DMSO (−) or 5 μM MG132 overnight in complete media. (a) Total LDLR-EGFP, PCSK9-mCherry, GRP94 and β-actin protein levels were analyzed by immune-blotting in cell lysates as indicated. (b) LDLR-GFP and PCSK9-mCherry were visualized in live cells by confocal microscopy as conditions described above. Data are representative of at least three independent experiments.
# To decipher the role of GRP94 on PCSK9, we took advantage of HEK293 cells, as they are easily transfectable in addition to be PCSK9-negative. (Seidah et al., 2003) Cells were transfected with either non-targeting siRNA (−) or with siRNAs against human GRP94 (+) and 24 h later without (−) or plasmids encoding for fluorescent PCSK9-mCherry or LDLR-EGFP (FIG. 4). Twenty-hours post cDNA transfections, cells were incubated either with vehicle (DMSO) or 5 μM MG132, a proteasome inhibitor.
# [2] = molecular target: PCSK9 binding to the LDLR EGFA domain (Homo sapiens, UniProt Q8NBP7); experiment: In vitro PCSK9-LDLR(EGFA) competitive assay, plate coated with LDLR-EGFA domain; conditions: 100 or 10 μM peptide, 100 ng wild-type human His-tagged PCSK9, pH6.1, 2 h
# Chain of PCSK9 binding to the LDLR EGFA domain (Q8NBP7 153-692): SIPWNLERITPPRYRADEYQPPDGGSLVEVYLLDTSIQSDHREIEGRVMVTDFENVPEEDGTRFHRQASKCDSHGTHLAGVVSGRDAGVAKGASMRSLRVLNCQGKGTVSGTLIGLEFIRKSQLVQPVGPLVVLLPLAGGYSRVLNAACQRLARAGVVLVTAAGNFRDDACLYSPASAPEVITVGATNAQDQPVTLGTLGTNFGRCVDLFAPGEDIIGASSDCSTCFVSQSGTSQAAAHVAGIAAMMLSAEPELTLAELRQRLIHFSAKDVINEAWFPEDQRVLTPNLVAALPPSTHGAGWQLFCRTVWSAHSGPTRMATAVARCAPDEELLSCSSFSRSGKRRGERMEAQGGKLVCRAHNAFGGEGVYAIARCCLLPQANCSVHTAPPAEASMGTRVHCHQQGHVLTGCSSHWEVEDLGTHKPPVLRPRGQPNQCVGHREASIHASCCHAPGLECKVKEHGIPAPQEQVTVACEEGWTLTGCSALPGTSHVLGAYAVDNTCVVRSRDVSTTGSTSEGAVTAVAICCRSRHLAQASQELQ
# Chain of PCSK9 binding to the LDLR EGFA domain (Q8NBP7 31-152 partner limits assumed): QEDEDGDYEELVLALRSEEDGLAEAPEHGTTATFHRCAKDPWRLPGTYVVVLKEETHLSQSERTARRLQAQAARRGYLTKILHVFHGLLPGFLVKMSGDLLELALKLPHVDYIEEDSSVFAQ
# Protocol: SEQ ID. NO. 4 peptide was dissolved to 10 mM (working dilution) in DMEM media (Wisent Cat. #319-005-CL). In a total of 100 μl reaction buffer (HEPES buffer containing NaCl, CaCl2), BSA and proclin 300, pH6.1), SEQ ID. NO. 4 were added to a final concentration of 100 or 10 μM together with 100 ng wild-type human recombinant His-tagged PCSK9. Reaction buffer was added to 96 wells coated with recombinant LDLR-EGFA domain (involved in PCSK9-LDLR interaction) and incubated at room temperature for 2 h on an orbital microplate shaker (300 rpm). Following incubation, wells were washed 4 times with wash buffer and biotinylated anti-His-tag monoclonal antibody was added into each well and incubated for 1 h at room temperature. Following incubation wells were washed 4 times, and HRP-conjugated streptatvidin was added to each well and incubated for 20 min. Following 4 washes, 100 μl substrate reagent (TMB, tetra-methylbenzidine) were added for 15 min to each wells and enzymatic reaction stopped by adding 100 μl stop solution (1N […]). For each well, absorbance at 450 nm and 540 nm was measure and relative PCSK9 binding to LDLR-EGFA was determined according to a standard curve (100 ng to 1.56 ng). Inhibitory activities of SEQ ID. […]
# [3] = tested on: LDLR degradation induced by overexpression of PCSK9; experiment: LDLR degradation after co-expression with PCSK9-V5 (intracellular pathway), immunoblot; assay type: cell-based, human
# Protocol: FIG. 7: SEQ ID NO. 6 prevents PCSK9-induced LDLR degradation. (a) Left; Coomassie staining of purified recombinant SEQ ID NO. 6 and PCSK9 separated by SDS-PAGE is shown. Right; HepG2 cells were incubated in DMEM without or with 0, 25, 100 or 250 nM SEQ ID NO. 6 alone or in presence of recombinant PCSK9. (b) HepG2 cells were transfected without (−) or with PCSK9-V5 in absence (−) or presence SEQ ID NO. 66 or SEQ ID NO. 46. Total LDLR, PCSK9, SEQ ID NO. 66, SEQ ID NO. 46 and β-actin protein levels were analyzed by immunoblotting in cell lysates and conditioned media as indicated. Data are representative of at least three independent experiments.
# We next tested whether SEQ ID. NO. 6 could alter the capacity of PCSK9 to induce LDLR degradation. HepG2 cells were incubated overnight with an increasing amount of recombinant SEQ ID. NO. 6 in absence or presence of exogenous PCSK9 (FIG. 7a). […] NO. […] Although that SEQ ID. NO. […] NO. […] (Poirier et al., 2009) As PCSK9 was also shown to induce LDLR degradation via an intracellular pathway, (Poirier et al., 2009) we evaluated to ability of SEQ ID. NO. 66 or SEQ ID. NO. 46 to neutralize PCSK9 in HepG2 cells following co-expression (FIG. 7b). Similar to the extracellular pathway (FIGS. 5b and 7a), both SEQ ID. NO. 66 and SEQ ID. NO. […] NO. 66 and specifically SEQ ID. NO. […]
# [4] = molecular target: T1, PCSK9-V5 (Homo sapiens, UniProt Q8NBP7); experiment: Co-immunoprecipitation of GRP94 constructs with PCSK9-V5 in transfected HEK293 cells; assay type: binding
# T1 construct: Full-length human V5-tagged PCSK9 and LDLR were subcloned into pIRES2-EGFP; expressed in transfected cells; host or cells: HEK293
# T1 sequence (Q8NBP7 153-692): as the sequence (Q8NBP7 153-692) above
# Protocol: FIG. 2: Mapping of the PCSK9-GRP94 interacting domain. (a-b) HEK293 cells were transfected without (−) or with (+) PCSK9-V5 or SEQ ID NO. 66, 64 or 65. A PCSK9 V5 epitope-tag fusion protein (PCSK9-V5) was immune-precipitated from cell lysates using mAb-V5 antibody (IP: V5) and immune-blotted as indicated. Total GRP94 (SEQ. ID. NO. 3) and PCSK9 (SEQ. ID. NO. 1) protein levels were analyzed by immune-blotting in cell lysates (input) and conditioned media. (c) Left panel; HEK293 cells were transfected without (−) or with (+) PCSK9-V5, SEQ. ID. NO. 66 or 46. PCSK9-V5 was immune-precipitated for cell lysates (IP: V5) and immune-blotted (IB) as indicated. Total GRP94 and PCSK9 protein levels were also analyzed by immune-blotting and herein used as a control (input). Right panel; GRP94 homodimer (gray and yellow) crystal structure was determined from PDB file #2O1V using MacPymol software. […] 6 in which critical residues for PCSK9 binding determined in (b) are indicated in blue for SEQ. ID. NO. 64 and red for SEQ. ID. NO. 65. Data are representative of at least three independent experiments.
# For identification of novel PCSK9 interactors, HepG2 or Huh-7 cells (55 cm2) were washed three times in phosphate-buffered saline (PBS) and incubated with 1 mM dithiobis[succinimidylpropionate] (DSP; Cat. #22585, Thermo Scientific), a thiol-cleavable cross-linking reagent, for 30 min at room temperature and subsequently switch for 15 min into a stop solution (15 mM Tris, pH 7.5). Cells were then lysed in complete radio-immune precipitation assay (RIPA) buffer (50 mM Tris/HCl, pH 8.0, 1% (v/v) Nonidet P40, 0.5% sodium deoxycholate, 150 mM NaCl and 0.1% (v/v) sodium dodecyl sulfate (SDS)) supplemented with a complete protease inhibitor mixture (Cat. #11 697 498 001, Roche Applied Science), passed 25 times through a 22-gauge needle and centrifuged at 11,000 g for 15 min at 4° C. Supernatants were incubated and rotated overnight with pre-immune serum, rabbit anti-hPCSK9 (amino acids 31-454) (1:250; Dr. Nabil Seidah, Clinical Research Institute of Montreal) or mouse anti-V5-tag (1:500; Cat. #R96025, Life Technologies) together with 50 μl protein A/G PLUS-agarose (Cat. #sc-2003, Santa Cruz). Following overnight incubation, beads were washed six times in RIPA buffer and resuspended in 75 μl Laemmli sample buffer. Co-immunoprecipitated (Co-IP) proteins were separated by 8% SDS-polyacrylamide gel electrophoresis and visualized using the Pierce silver stain kit (Cat. #24600, Thermo Scientific) according the manufacturer's instructions. All other Co-IP experiments were performed as described without the cross-linking step and in SDS-deprived RIPA buffer. HA-tagged proteins and GRP94 were immunoprecipitated with mouse anti-HA-tag (1:500; Cat. #H3663, Sigma-Aldrich) or rat anti-Grp94 (9G10, 1:1000; Cat. #ADI-SPA-850, Enzo Life Sciences).
# We next decided to map GRP94 domain(s) important for PCSK9 protein-protein interaction. The overall domain structure of GRP94 includes a signal polypeptide (amino acids; aa1-21) followed by a N-terminal enzymatic ATP-binding domain (aa22-651), client-binding domain (CBD; aa652-678), C-terminal dimerization domain (aa679-799) and a KDEL polypeptide sequence (aa800-803) allowing retention of GRP94 in the endoplasmic reticulum. (Dollins et al., 2007; Maki et al., 1990; Wu et al., 2012) Thus, we first generated cDNA constructs encoding secretable HA-tagged forms of human GRP94 lacking its C-terminal KDEL polypeptide (SEQ ID. NO. 66; FIG. 2). HEK293 cells were transfected without or with SEQ ID. NO. 66 in absence or presence of PCSK9-V5 (FIG. 2a). […] NO. 66 is well expressed (Input; IB: HA) and secreted into media and that SEQ ID. NO. […] It was reported that a 27 aa C-terminal hydrophobic loop structure within GRP94 client-binding domain (CBD, amino acids aa652-678; ^652[…], SEQ ID. NO. 4) was important for folding and interaction with Toll-like receptors and integrins. (Wu et al., 2012) Deletion or alanine-scan mutations in SEQ ID. […]
molecule,measurement,setting,value
CC(C)C[C@@H](C=O)NC(=O)[C@H](CC(C)C)NC(=O)[C@H](CC(C)C)NC(=O)OCc1ccccc1 [MG132] (Cbz-Leu-Leu-Leu-aldehyde),Block of PCSK9-induced LDLR degradation after GRP94 knockdown,[1],not blocked
YGWSGNMERIMKAQAYQTGKDISTNYY (YGWSGNMERIMKAQAYQTGKDISTNYY-NH2) [SEQ ID. NO. 4],Inhibition of binding of PCSK9 to the LDLR EGFA domain,[2],inhibit binding of PCSK9 to the LDLR EGFA domain
same,Inhibition of binding of PCSK9 to the LDLR EGFA domain,[2]; listed as SEQ. ID. NO. 4,inhibits binding of PCSK9 to the LDLR EGFA domain
B1,Block of LDLR degradation induced by overexpression of PCSK9,[3],significantly block
same,Interaction (binding) with PCSK9 by co-immunoprecipitation,[4],interacts in complex with PCSK9
same,Interaction (binding) with PCSK9 by co-immunoprecipitation,[4]; listed as SEQ. ID NO. 66,specifically binds to PCSK9
